Test [1] deals with T1, Recombinant His-tagged HP1γ (human, UniProt Q13185 1-183).
T1 construct: HP1γ, human; the cDNA used encodes 183 amino acids; pCold I vector; also called His-HP1γ; His-tag HP1γ; source: E. coli DH5α (pCold I), isolated with TALON His-tag resin, dialysed
In words: pull-down; His-tagged HP1γ forms incubated with GST-KDM2A fragments in 300 mM NaCl, 50 mM Na-phosphate pH 7.0, 4 °C 1 h; collected on TALON resin (1% NP40 washes); SDS-PAGE. As to conditions: both partners purified.

For test [2], the target named is T2, Recombinant His-tagged HP1γ (CSD) (human, UniProt Q13185 110-183).
T2 construct: HP1γ, human, chromoshadow domain construct, amino acids 110-183; Limits 110-183 are those printed for the HP1γ (CSD) cDNA; the His-tag plasmids are described only as 'His-tag HP1γ and its mutants'; also called CSD of HP1γ; His-HP1γ mutant; source: E. coli DH5α (pCold I), isolated with TALON His-tag resin, dialysed
T2 sequence (Q13185 110-183): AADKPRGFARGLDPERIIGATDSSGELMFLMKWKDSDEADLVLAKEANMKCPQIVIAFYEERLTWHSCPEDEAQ
The description is as above. As to conditions: both partners purified.

T1 sequence (Q13185 whole entry): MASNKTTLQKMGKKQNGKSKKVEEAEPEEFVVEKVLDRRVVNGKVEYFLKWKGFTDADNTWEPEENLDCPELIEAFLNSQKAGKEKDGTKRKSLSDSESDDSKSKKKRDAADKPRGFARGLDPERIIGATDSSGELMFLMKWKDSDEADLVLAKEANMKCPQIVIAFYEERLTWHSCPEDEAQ

B1: recombinant KDM2A fragment (amino acids 785–817) fused with GST (domain or fragment, UniProt Q9Y2K7 785-817, looked up)
chain: ELSEVEKAKIRGSYLTVTLQRPTKELHGTSIVP
notes: also called GST-KDM2A fragment; source: E. coli DH5α (pGEX-3X), isolated on glutathione-Sepharose, dialysed
As to B1, the binding result in test [1] and in test [2] was “binds” throughout.
